{
  "source": "patent US20200115416A1",
  "about": "(REGENTS OF THE UNIVERSITY OF MINNESOTA, published 2020)",
  "binders": {"B1": {"name": "c[Pro-Arg-Phe-Phe-His-Ala-Phe-DPro] (peptide)", "peptide": "cyclo(PRFFHAF[dP])", "SMILES": "C[C@@H]1NC(=O)[C@H](Cc2c[nH]cn2)NC(=O)[C@H](Cc2ccccc2)NC(=O)[C@H](Cc2ccccc2)NC(=O)[C@H](CCCNC(=N)N)NC(=O)[C@@H]2CCCN2C(=O)[C@H]2CCCN2C(=O)[C@H](Cc2ccccc2)NC1=O"}, "B2": {"name": "c[Pro-Arg-Phe-Phe-Phe-Ala-Phe-DPro] (peptide)", "peptide": "cyclo(PRFFFAF[dP])", "SMILES": "C[C@@H]1NC(=O)[C@H](Cc2ccccc2)NC(=O)[C@H](Cc2ccccc2)NC(=O)[C@H](Cc2ccccc2)NC(=O)[C@H](CCCNC(=N)N)NC(=O)[C@@H]2CCCN2C(=O)[C@H]2CCCN2C(=O)[C@H](Cc2ccccc2)NC1=O"}, "B3": {"name": "c[Pro-Arg-Phe-Phe-Asn-Glu-Phe-DPro] (peptide)", "peptide": "cyclo(PRFFNEF[dP])", "SMILES": "N=C(N)NCCC[C@@H]1NC(=O)[C@@H]2CCCN2C(=O)[C@H]2CCCN2C(=O)[C@H](Cc2ccccc2)NC(=O)[C@H](CCC(=O)O)NC(=O)[C@H](CC(N)=O)NC(=O)[C@H](Cc2ccccc2)NC(=O)[C@H](Cc2ccccc2)NC1=O"}, "B4": {"name": "c[Pro-Arg-Phe-Phe-Asn-Asp-Phe-DPro] (peptide)", "peptide": "cyclo(PRFFNDF[dP])", "SMILES": "N=C(N)NCCC[C@@H]1NC(=O)[C@@H]2CCCN2C(=O)[C@H]2CCCN2C(=O)[C@H](Cc2ccccc2)NC(=O)[C@H](CC(=O)O)NC(=O)[C@H](CC(N)=O)NC(=O)[C@H](Cc2ccccc2)NC(=O)[C@H](Cc2ccccc2)NC1=O"}, "B5": {"name": "c[Pro-Arg-Phe-Phe-Trp-Ala-Phe-DPro] (peptide)", "peptide": "cyclo(PRFFWAF[dP])", "SMILES": "C[C@@H]1NC(=O)[C@H](Cc2c[nH]c3ccccc23)NC(=O)[C@H](Cc2ccccc2)NC(=O)[C@H](Cc2ccccc2)NC(=O)[C@H](CCCNC(=N)N)NC(=O)[C@@H]2CCCN2C(=O)[C@H]2CCCN2C(=O)[C@H](Cc2ccccc2)NC1=O"}},
  "assay_in_all_cases": "cell-based or functional assay",
  "key": {"[1]": {"target": "mouse melanocortin-3 receptor (mouse, UniProt P33033 1-323)", "sequence (P33033 whole entry)": "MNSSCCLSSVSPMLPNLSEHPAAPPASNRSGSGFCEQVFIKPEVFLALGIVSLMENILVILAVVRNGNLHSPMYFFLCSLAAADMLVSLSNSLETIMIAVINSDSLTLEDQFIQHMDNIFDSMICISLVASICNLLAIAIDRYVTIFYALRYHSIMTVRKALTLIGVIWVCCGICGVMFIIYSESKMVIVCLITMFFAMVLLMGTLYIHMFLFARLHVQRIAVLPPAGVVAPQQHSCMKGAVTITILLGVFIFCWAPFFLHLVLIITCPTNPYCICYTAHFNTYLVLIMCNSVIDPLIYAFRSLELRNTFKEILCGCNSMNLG"}, "[2]": {"target": "T1, mouse melanocortin-1 receptor (mouse, UniProt Q01727 1-315)", "T1 sequence (Q01727 whole entry)": "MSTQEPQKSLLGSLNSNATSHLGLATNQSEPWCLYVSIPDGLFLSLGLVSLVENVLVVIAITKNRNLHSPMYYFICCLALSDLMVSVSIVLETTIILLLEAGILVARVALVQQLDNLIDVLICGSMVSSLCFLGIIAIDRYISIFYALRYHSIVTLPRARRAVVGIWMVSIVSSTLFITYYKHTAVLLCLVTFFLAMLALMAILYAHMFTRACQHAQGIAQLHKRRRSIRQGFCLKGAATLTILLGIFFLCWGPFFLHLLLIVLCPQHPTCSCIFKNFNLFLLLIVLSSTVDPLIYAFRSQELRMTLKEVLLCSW"}, "[3]": {"target": "mouse melanocortin-5 receptor (mouse, UniProt P41149 1-325)", "sequence (P41149 whole entry)": "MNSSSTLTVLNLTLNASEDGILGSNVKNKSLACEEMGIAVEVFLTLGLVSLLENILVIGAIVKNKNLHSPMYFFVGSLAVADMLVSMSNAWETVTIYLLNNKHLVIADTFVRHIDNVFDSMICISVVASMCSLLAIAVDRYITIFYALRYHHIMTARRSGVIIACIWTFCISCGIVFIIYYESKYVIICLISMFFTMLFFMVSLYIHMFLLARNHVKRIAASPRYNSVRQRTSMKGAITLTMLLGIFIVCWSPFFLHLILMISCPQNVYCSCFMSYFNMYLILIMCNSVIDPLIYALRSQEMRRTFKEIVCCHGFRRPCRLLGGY"}, "[4]": {"target": "mouse melanocortin-4 receptor (mouse, UniProt P56450 1-332)", "sequence (P56450 whole entry)": "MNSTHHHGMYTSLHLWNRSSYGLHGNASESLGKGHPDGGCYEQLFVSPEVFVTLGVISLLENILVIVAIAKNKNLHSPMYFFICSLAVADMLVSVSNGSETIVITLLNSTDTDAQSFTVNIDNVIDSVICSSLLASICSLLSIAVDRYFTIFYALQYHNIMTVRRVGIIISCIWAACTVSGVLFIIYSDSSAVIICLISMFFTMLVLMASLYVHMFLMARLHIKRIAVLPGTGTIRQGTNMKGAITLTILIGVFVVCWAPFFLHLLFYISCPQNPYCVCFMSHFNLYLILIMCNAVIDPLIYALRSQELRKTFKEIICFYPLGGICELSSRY"}, "[5]": {"target": "T1, mouse melanocortin-1 receptor", "remark": "listed apart in the source"}},
  "note": "Square brackets hold non-standard residues; d marks the D form. hPhe = N[C@@H](CCc1ccccc1)C(=O)O",
  "data": [
    {"binder": "B1", "values": [
      {"measurement": "agonist EC50 (cAMP AlphaScreen)", "setting": "[1]", "value": "> 100", "unit": "µM"},
      {"measurement": "antagonist pA2 (Schild, agonist NDP-MSH)", "setting": "[1]", "value": 6.46},
      {"measurement": "agonist EC50 (cAMP AlphaScreen)", "setting": "[2]", "value": "> 100", "unit": "µM"},
      {"measurement": "inverse agonist apparent potency", "setting": "[3]", "value": 0.01, "unit": "µM"},
      {"measurement": "inverse agonist, % decrease from basal cAMP", "setting": "[3]", "value": -15, "unit": "%"}
    ]},
    {"binder": "cyclo(PRFFVAF[dP])", "note": "[c[Pro-Arg-Phe-Phe-Val-Ala-Phe-DPro]]", "values": [
      {"measurement": "agonist EC50 (cAMP AlphaScreen)", "setting": "[1]", "value": "> 100", "unit": "µM"},
      {"measurement": "antagonist pA2 (Schild, agonist NDP-MSH)", "setting": "[1]", "value": "< 5.5"},
      {"measurement": "% maximal NDP-MSH response at 100 µM (cAMP AlphaScreen)", "setting": "[2]", "value": 55, "unit": "%"},
      {"measurement": "agonist EC50 (cAMP AlphaScreen)", "setting": "[4]", "value": "> 100", "unit": "µM"},
      {"measurement": "antagonist pA2 (Schild, agonist NDP-MSH)", "setting": "[4]", "value": 5.9},
      {"measurement": "inverse agonist apparent potency", "setting": "[3]", "value": 0.51, "unit": "µM"},
      {"measurement": "inverse agonist, % decrease from basal cAMP", "setting": "[3]", "value": -25, "unit": "%"}
    ]},
    {"binder": "B2", "values": [
      {"measurement": "agonist EC50 (cAMP AlphaScreen)", "setting": "[1]", "value": "> 100", "unit": "µM"},
      {"measurement": "antagonist pA2 (Schild, agonist NDP-MSH)", "setting": "[1]", "value": "< 5.5"},
      {"measurement": "agonist EC50 (cAMP AlphaScreen)", "setting": "[2]", "value": "> 100", "unit": "µM"},
      {"measurement": "agonist EC50 (cAMP AlphaScreen)", "setting": "[4]", "value": "> 100", "unit": "µM"},
      {"measurement": "antagonist pA2 (Schild, agonist NDP-MSH)", "setting": "[4]", "value": 6.63},
      {"measurement": "agonist EC50 (cAMP AlphaScreen)", "setting": "[3]", "value": "> 100", "unit": "µM"}
    ]},
    {"binder": "cyclo(PRF[hPhe]NAF[dP])", "note": "[c[Pro-Arg-Phe-hPhe-Asn-Ala-Phe-DPro]]", "values": [
      {"measurement": "% receptor stimulation at 100 µM (cAMP AlphaScreen)", "setting": "[5]", "value": 35, "unit": "%"}
    ]},
    {"binder": "B3", "values": [
      {"measurement": "agonist EC50 (cAMP AlphaScreen)", "setting": "[1]", "value": "> 100", "unit": "µM"},
      {"measurement": "antagonist pA2 (Schild, agonist NDP-MSH)", "setting": "[1]", "value": "< 5.5"},
      {"measurement": "% maximal NDP-MSH response at 100 µM (cAMP AlphaScreen)", "setting": "[2]", "value": 60, "unit": "%"},
      {"measurement": "agonist EC50 (cAMP AlphaScreen)", "setting": "[4]", "value": "> 100", "unit": "µM"},
      {"measurement": "antagonist pA2 (Schild, agonist NDP-MSH)", "setting": "[4]", "value": "< 5.5"},
      {"measurement": "agonist EC50 (cAMP AlphaScreen)", "setting": "[3]", "value": "> 100", "unit": "µM"}
    ]},
    {"binder": "B4", "values": [
      {"measurement": "agonist EC50 (cAMP AlphaScreen)", "setting": "[1]", "value": "> 100", "unit": "µM"},
      {"measurement": "antagonist pA2 (Schild, agonist NDP-MSH)", "setting": "[1]", "value": "< 5.5"},
      {"measurement": "% maximal NDP-MSH response at 100 µM (cAMP AlphaScreen)", "setting": "[2]", "value": 65, "unit": "%"},
      {"measurement": "agonist EC50 (cAMP AlphaScreen)", "setting": "[4]", "value": "> 100", "unit": "µM"},
      {"measurement": "antagonist pA2 (Schild, agonist NDP-MSH)", "setting": "[4]", "value": "< 5.5"},
      {"measurement": "inverse agonist, % change from basal cAMP at 100 µM", "setting": "[3]", "value": -25, "unit": "%"}
    ]},
    {"binder": "B5", "values": [
      {"measurement": "% maximal NDP-MSH response at 100 µM (cAMP AlphaScreen)", "setting": "[1]", "value": 40, "unit": "%"},
      {"measurement": "antagonist pA2 (Schild, agonist NDP-MSH)", "setting": "[1]", "value": 5.7},
      {"measurement": "% maximal NDP-MSH response at 100 µM (cAMP AlphaScreen)", "setting": "[2]", "value": 80, "unit": "%"},
      {"measurement": "% maximal NDP-MSH response at 100 µM (cAMP AlphaScreen)", "setting": "[4]", "value": 50, "unit": "%"},
      {"measurement": "antagonist pA2 (Schild, agonist NDP-MSH)", "setting": "[4]", "value": 6.81},
      {"measurement": "inverse agonist apparent potency", "setting": "[3]", "value": 0.15, "unit": "µM"},
      {"measurement": "inverse agonist, % decrease from basal cAMP", "setting": "[3]", "value": -20, "unit": "%"}
    ]}
  ]
}
